The results in this text go back to the supplement of paper PMC9170038.

The test system of the data set is MS2 coat protein. As to the kind of experiment: apparent KD of MS2 coat protein; higher = weaker reporter binding. As to conditions: Eterna round: R107. In a few lines:
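With or without constant ligand, designed RNA switches in 100 mM Tris-HCl pH 7.5, 80 mM KCl and 4 mM MgCl2 were titrated with SNAP-549-labelled MS2 coat protein. Concentrations went up in twofold steps from 0.7 or 1.5 nM to 3 µM. The switches had been transcribed on-chip from Illumina sequencing clusters, and apparent KD is the per-design median of normalised cluster binding-curve fits.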

The mark [1] stands for this setting: input ligand: theophylline 20 uM.
[2] abbreviates: input ligand: tryptophan 2.4 mM.
Setting [3] is: input ligand: theophylline 2 mM.

As for “AUCGUACCUGAGGAUACCAGCAUGUGAUCAUAACAUGAGGAUCACCCAUGUAAUCAGUGAUGCCCUUGGCAGCUUGGUCGGUACA [Same State - Theophylline B (Freestyle 10)]”, the “apparent KD of MS2 coat protein” value (input ligand: arginine 13.2 mM) worked out at 34.8 nM, the “apparent KD of MS2 coat protein” value under setting [1] turned out to be 74.3 nM and the “apparent KD of MS2 coat protein” value under setting [2] was found to be 44.2 nM.

As to “AUCGUACCUGAUGAUACCAGCAAGUGAUCAUAACAUGAGGAUCACCCAUGUAAUCAGUGAUGCCCUUGGCAGCAUAGUCGAUACA [Same State - Theophylline B (Freestyle 5)]”, the “apparent KD of MS2 coat protein” value (input ligand: arginine 13.2 mM) was 77.8 nM, the “apparent KD of MS2 coat protein” value under setting [1] was found to be 199 nM and the “apparent KD of MS2 coat protein” value under setting [2] came to 166 nM.

Regarding “AUCGUACCUGAUGAUACCAGCAUGUGAUCGUAACAUGAGGAUCACCCAUGUAAUCAGUGAUGCCCUUGGCAGCAUGAUCGGUACA [Same State - Theophylline B (Freestyle 14)]”, the “apparent KD of MS2 coat protein” value reads like this: (input ligand: arginine 13.2 mM) 79.2 nM; under setting [1], 127 nM; under setting [2], 94.9 nM.

Take “AUCGUACCUGAUGAUACCAGCAUGUGCUCGUAACAUGAGGAUCACCCAUGUGAUCAGUGAUGCCCUUGGCAGCAUGAUCGGUACA [Same State - Theophylline B (Freestyle 16)]”: the “apparent KD of MS2 coat protein” value is, setting by setting: (input ligand: arginine 13.2 mM) 67 nM; (input ligand: none) 66 nM; under setting [1], 49.2 nM; under setting [3], 14.1 nM; under setting [2], 61.2 nM.

As to “AUCGUACCUGGUGAUACCAGCAAUUGCUCGUGACAUGAGGAUCACCCAUGUGACCAGUGAUGCCCUUGGCAGCAUGGUCGGUGCA [Same State - Theophylline B (Freestyle 23)]”, the “apparent KD of MS2 coat protein” value runs as follows: (input ligand: arginine 13.2 mM) 36.8 nM; under setting [1], 65.3 nM; under setting [2], 61.2 nM.

“AUCUCAUAGAGUGAUACCAGACUACAUGAGGAUCACCCAUGUUACAUUUAAAUAUCAUUUGUCCCUUGGCAGCACAUUAAGUACA [JR_Nu_ExcTheophyB_Sub019]”: the “apparent KD of MS2 coat protein” value reads like this: (input ligand: arginine 13.2 mM) 25.6 nM; under setting [1], 33.2 nM; under setting [2], 23.4 nM.

Take “AUCUCAUAGAGUGAUACCAGACUACAUGAGGAUCACCCAUGUUAGAUUUAAAUAUCAUUUGUCCCUUGGCAGCACAUUAAGUACA [JR_Nu_SSTheophyB_Sub021]”: the “apparent KD of MS2 coat protein” value (input ligand: arginine 13.2 mM) amounted to 14.2 nM, the “apparent KD of MS2 coat protein” value under setting [1] was determined as 14.8 nM and the “apparent KD of MS2 coat protein” value under setting [2] was determined as 12.7 nM.

With “AUGCAUAUCAGAAGGAGCGUCAUUAACAUGAGGAUCACCCAUGUAACAUUGAAUUCGAUGAGACAGGUAGGUCGCUGAAUAGUAA [SS-ArgB26]”, the “apparent KD of MS2 coat protein” value reads like this: (input ligand: arginine 13.2 mM) 26.6 nM; (input ligand: none) 35.6 nM; under setting [1], 44.9 nM; under setting [3], 37.9 nM; under setting [2], 31.1 nM.

In the case of “AUGCCUAGUGGAAGGAGCGAGGGUCUUCUCAACAUGAGGAUCACCCAUGUUCUUUUACACCCUCAGGUAGGUCGCCAUUGGGACA [Biraanve]”, the “apparent KD of MS2 coat protein” value runs as follows: (input ligand: arginine 13.2 mM) 25.1 nM; (input ligand: none) 55 nM; under setting [1], 85.2 nM; under setting [3], 44.6 nM; under setting [2], 61.2 nM.

As for “AUGCGGUGCGGAAGGAGCGAGUUUGCCUAUUACAUGAGGAUCACCCAUGUGGGUAAUGGGACUCAGGUAGGUCGCCGUUGUCGCA [Same State Arginine B GF 28]”, the “apparent KD of MS2 coat protein” value (input ligand: arginine 13.2 mM) is 41.9 nM; the “apparent KD of MS2 coat protein” value (input ligand: none) was 57.5 nM; the “apparent KD of MS2 coat protein” value under setting [1] was found to be 77.9 nM; the “apparent KD of MS2 coat protein” value under setting [3] amounted to 65.1 nM; the “apparent KD of MS2 coat protein” value under setting [2] is 50.1 nM.

As for “AUGGUCGACGAUCUGCGAAAAGCAGAUCGACGAGGACCGGUACGGCCGCCACUCGUGUUCAUUAAACAUGAGGAUCACCCAUGUA [#15Tryptophan A Same State]”, the “apparent KD of MS2 coat protein” value (input ligand: arginine 13.2 mM) was found to be 41 nM, the “apparent KD of MS2 coat protein” value under setting [1] was 68.7 nM and the “apparent KD of MS2 coat protein” value under setting [3] was determined as 70.2 nM.

As to “AUGGUUGUCGCGGCCGCCACUGUCGGCCGCCACUAAACAUGAGGAUCACCCAUGUAGGACCGGGACAGGACCGGGUGAUAACCAC [TryBS - #DoubleAptamer 3]”, the “apparent KD of MS2 coat protein” value by setting is: (input ligand: arginine 13.2 mM) 24.1 nM; (input ligand: none) 25.9 nM; under setting [1], 33.9 nM; under setting [3], 33.2 nM; under setting [2], 14.3 nM.

For “AUGUUUGUGUGAGAUACCAGUGAGGCCACAUGAGGAUCACCCAUGUCCCUCACUCCGGCCCACCCUUGGCAGCUCUUAUAGUAAA [Exclusion Theophylline B GF 25]”, the “apparent KD of MS2 coat protein” value reads like this: (input ligand: arginine 13.2 mM) 12 nM; under setting [1], 12.9 nM; under setting [2], 10.4 nM.

As for “AUUAAAAGUUGUGAUACCAGACGAACAUGAGGAUCACCCAUGUAACUUUUAGGUGUUGUAGUCCCUUGGCAGCACUAUGUAGUUA [JR_SSTheophyB_Sub012]”, the “apparent KD of MS2 coat protein” value was determined as 31.3 nM (input ligand: arginine 13.2 mM), 49.2 nM under setting [1] and 40.1 nM under setting [2].

For the sequence “AUUAAGGAUAUAUAGAAGGCGGAGAAGAGACGAGGACCGGUACGGCCGCCACUCGUGUUAGUUAACAUGAGGAUCACCCAUGUAA [Turkey 2]”, the “apparent KD of MS2 coat protein” value (input ligand: arginine 13.2 mM) amounted to 41.3 nM, the “apparent KD of MS2 coat protein” value under setting [1] was found to be 76.9 nM and the “apparent KD of MS2 coat protein” value under setting [3] was found to be 102 nM.

As to “AUUCAUGGAAACAUGACAUAGGGAUCCGGUCGAGGACCGGUACGGCCGCCACUCGUUUGGAGGCACAUGAGGAUCACCCAUGUUA [SS Tryp A #7]”, the “apparent KD of MS2 coat protein” value (input ligand: arginine 13.2 mM) amounted to 40.7 nM, the “apparent KD of MS2 coat protein” value under setting [1] was determined as 118 nM and the “apparent KD of MS2 coat protein” value under setting [3] came out at 101 nM.

Take “AUUGACAUGAGGAUCACCCAUGUAUCCGAAGGAGCGGCAGAUGUGCCAGGUAGGUCGCGGGUGAAAGAGACAUCGUAGGGUGUCG [Same State - Arginine A / B [only NuPack]]”: the “apparent KD of MS2 coat protein” value was determined as 73.9 nM (input ligand: arginine 13.2 mM); 256 nM (input ligand: none); 207 nM under setting [1]; 469 nM under setting [3]; 229 nM under setting [2].
